Data on 9 proteins can be found in patent US20090099029.

Sequences and labels used below:
B1: SGK2 (protein)
chain: LPDHCYRMNSSPAGTPSPQPSRANGNINLGPSANPNAQPTDFDFLKVIGKGNYGKVLLAKRKSDGAFYAVKVLQKKSILKKKEQSHIMAERSVLLKNVRHPFLVGLRYSFQTPEKLYFVLDYVNGGELFFHLQRERRFLEPRARFYAAEVASAIGYLHSLNIIYRDLKPENILLDCQGHVVLTDFGLCKEGVEPEDTTSTFCGTPEYLAPEVLRKEPYDRAVDWWCLGAVLYEMLHGLPPFYSQDVSQMYENILHQPLQIPGGRTVAACDLLQSLLHKDQRQRLGSKADFLEIKNHVFFSPINWDDLYHKRLTPPFNPNVTGPADLKHFDPEFTQEAVSKSIGCTPDTVASSSGASSAFLGFDYAPEDDDILDC
B2: RPS6KA1(RSK1) (protein)
chain: MPLAQLKEPWPLMELVPLDPENGQTSGEEAGLQPSKDEGVLKEISITHHVKAGSEKADPSHFELLKVLGQGSFGKVFLVRKVTRPDSGHLYAMKVLKKATLKVRDRVRTKMERDILADVNHPFVVKLHYAFQTEGKLYLILDFLRGGDLFTRLSKEVMFTEEDVKFYLAELALGLDHLHSLGIIYRDLKPENILLDEEGHIKLTDFGLSKEAIDHEKKAYSFCGTVEYMAPEVVNRQGHSHSADWWSYGVLMFEMLTGSLPFQGKDRKETMTLILKAKLGMPQFLSTEAQSLLRALFKRNPANRLGSGPDGAEEIKRHVFYSTIDWNKLYRREIKPPFKPAVAQPDDTFYFDTEFTSRTPKDSPGIPPSAGAHQLFRGFSFVATGLMEDDGKPRAPQAPLHSVVQQLHGKNLVFSDGYVVKETIGVGSYSECKRCVHKATNMEYAVKVIDKSKRDPSEEIEILLRYGQHPNIITLKDVYDDGKHVYLVTELMRGGELLDKILRQKFFSEREASFVLHTIGKTVEYLHSQGVVHRDLKPSNILYVDESGNPECLRICDFGFAKQLRAENGLLMTPCYTANFVAPEVLKRQGYDEGCDIWSLGILLYTMLAGYTPFANGPSDTPEEILTRIGSGKFTLSGGNWNTVSETAKDLVSKMLHVDPHQRLTAKQVLQHPWVTQKDKLPQSQLSHQDLQLVKGAMAATYSALNSSKPTPQLKPIESSILAQRRVRKLPSTTL
B3: EPHB4 (protein)
chain: LCLRKQSNGREAEYSDKHGQYLIGHGTKVYIDPFTYEDPNEAVREFAKEIDVSYVKIEEVIGAGEFGEVCRGRLKAPGKKESCVAIKTLKGGYTERQRREFLSEASIMGQFEHPNIIRLEGVVTNSMPVMILTEFMENGALDSFLRLNDGQFTVIQLVGMLRGIASGMRYLAEMSYVHRDLAARNILVNSNLVCKVSDFGLSRFLEENSSDPTYTSSLGGKIPIRWTAPEAIAFRKFTSASDAWSYGIVMWEVMSFGERPYWDMSNQDVINAIEQDYRLPPPPDCPTSLHQLMLDCWQKDRNARPRFPQVVSALDKMIRNPASLKIVARENGGASHPLLDQRQPHYSAFGSVGEWLRAIKMGRYEESFAAAGFGSFELVSQISAEDLLRIGVTLAGHQKKILASVQHMKSQAKPGTPGGTGGPAPQY
B4: RPS6KB1(p70S6K) (protein)
chain: MRRRRRRDGFYPAPDFRDREAEDMAGVFDIDLDQPEDAGSEDELEEGGQLNESMDHGGVGPYELGMEHCEKFEISETSVNRGPEKIRPECFELLRVLGKGGYGKVFQVRKVTGANTGKIFAMKVLKKAMIVRNAKDTAHTKAERNILEEVKHPFIVDLIYAFQTGGKLYLILEYLSGGELFMQLEREGIFMEDTACFYLAEISMALGHLHQKGIIYRDLKPENIMLNHQGHVKLTDFGLCKESIHDGTVTHTFCGTIEYMAPEILMRSGHNRAVDWWSLGALMYDMLTGAPPFTGENRKKTIDKILKCKLNLPPYLTQEARDLLKKLLKRNAASRLGAGPGDAGEVQAHPFFRHINWEELLARKVEPPFKPLLQSEEDVSQFDSKFTRQTPVDSPDDSTLSESANQVFLGFEYVAPSVLES
B5: RPS6KA4(MSK2) (protein)
chain: MGDEDDDESCAVELRITEANLTGHEEKVSVENFELLKVLGTGAYGKVFLVRKAGGHDAGKLYAMKVLRKAALVQRAKTQEHTRTERSVLELVRQAPFLVTLHYAFQTDAKLHLILDYVSGGEMFTHLYQRQYFKEAEVRVYGGEIVLALEHLHKLGIIYRDLKLENVLLDSEGHIVLTDFGLSKEFLTEEKERTFSFCGTIEYMAPEIIRSKTGHGKAVDWWSLGILLFELLTGASPFTLEGERNTQAEVSRRILKCSPPFPPRIGPVAQDLLQRLLCKDPKKRLGAGPQGAQEVRNHPFFQGLDWVALAARKIPAPFRPQIRSELDVGNFAEEFTRLEPVYSPPGSPPPGDPRIFQGYSFVAPSILFDHNNAVMTDGLEAPGAGDRPGRAAVARSAMMQDSPFFQQYELDLREPALGQGSFSVCRRCRQRQSGQEFAVKILSRRLEANTQREVAALRLCQSHPNVVNLHEVHHDQLHTYLVLELLRGGELLEHIRKKRHFSESEASQILRSLVSAVSFMHEEAGVVHRDLKPENILYADDTPGAPVKIIDFGFARLRPQSPGVPMQTPCFTLQYAAPELLAQQGYDESCDLWSLGVILYMMLSGQVPFQGASGQGGQSQAAEIMCKIREGRFSLDGEAWQGVSEEAKELVRGLLTVDPAKRLKLEGLRGSSWLQDGSARSSPPLRTPDVLESSGPAVRSGLNATFMAFNRGKREGFFLKSVENAPLAKRRKQKLRSATASRRGSPAPANPGRAPVASKGAPRRANGPLPPS
B6: RPS6KB2(p70S6K2) (protein)
chain: MAAVFDLDLETEEGSEGEGEPELSPADACPLAELRAAGLEPVGHYEEVELTETSVNVGPERIGPHCFELLRVLGKGGYGKVFQVRKVQGTNLGKIYAMKVLRKAKIVRNAKDTAHTRAERNILESVKHPFIVELAYAFQTGGKLYLILECLSGGELFTHLEREGIFLEDTACFYLAEITLALGHLHSQGIIYRDLKPENIMLSSQGHIKLTDFGLCKESIHEGAVTHTFCGTIEYMAPEILVRSGHNRAVDWWSLGALMYDMLTGSPPFTAENRKKTMDKIIRGKLALPPYLTPDARDLVKKFLKRNPSQRIGGGPGDAADVQRHPFFRHMNWDDLLAWRVDPPFRPCLQSEEDVSQFDTRFTRQTPVDSPDDTALSESANQAFLGFTYVAPSVLDSIKEGFSFQPKLRSPRRLNSSPRAPVSPLKFSPFEGFRPSPSLPEPTELPLPPLLPPPPPSTTAPLPIRPPSGTKKSKRGRGRPGR
B7: RPS6KA2(RSK3) (protein)
chain: MDLSMKKFAVRRFFSVYLRRKSRSKSSSLSRLEEEGVVKEIDISHHVKEGFEKADPSQFELLKVLGQGSYGKVFLVRKVKGSDAGQLYAMKVLKKATLKVRDRVRSKMERDILAEVNHPFIVKLHYAFQTEGKLYLILDFLRGGDLFTRLSKEVMFTEEDVKFYLAELALALDHLHSLGIIYRDLKPENILLDEEGHIKITDFGLSKEAIDHDKRAYSFCGTIEYMAPEVVNRRGHTQSADWWSFGVLMFEMLTGSLPFQGKDRKETMALILKAKLGMPQFLSGEAQSLLRALFKRNPCNRLGAGIDGVEEIKRHPFFVTIDWNTLYRKEIKPPFKPAVGRPEDTFHFDPEFTARTPTDSPGVPPSANAHHLFRGFSFVASSLIQEPSQQDLHKVPVHPIVQQLHGNNIHFTDGYEIKEDIGVGSYSVCKRCVHKATDTEYAVKIIDKSKRDPSEEIEILLRYGQHPNIITLKDVYDDGKFVYLVMELMRGGELLDRILRQRYFSEREASDVLCTITKTMDYLHSQGVVHRDLKPSNILYRDESGSPESIRVCDFGFAKQLRAGNGLLMTPCYTANFVAPEVLKRQGYDAACDIWSLGILLYTMLAGFTPFANGPDDTPEEILARIGSGKYALSGGNWDSISDAAKDVVSKMLHVDPHQRLTAMQVLKHPWVVNREYLSPNQLSRQDVHLVKGAMAATYFALNRTPQAPRLEPVLSSNLAQRRGMKRLTSTRL
B8: SLK (protein)
chain: MSFFNFRKIFKLGSEKKKKQYEHVKRDLNPEDFWEIIGELGDGAFGKVYKAQNKETSVLAAAKVIDTKSEEELEDYMVEIDILASCDHPNIVKLLDAFYYENNLWILIEFCAGGAVDAVMLELERPLTESQIQVVCKQTLDALNYLHDNKIIHRDLKAGNILFTLDGDIKLADFGVSAKNTRTIQRRDSFIGTPYWMAPEVVMCETSKDRPYDYKADVWSLGITLIEMAEIEPPHHELNPMRVLLKIAKSEPPTLAQPSRWSSNFKDFLKKCLEKNVDARWTTSQLLQHPFVTVDSNKPIRELIAEAKAEVTEEVEDGKEEDEEEETENSLPIPASKRASSDLSIASSEEDKLSQNACILESVSEKTERSNSEDKLNSKILNEKPTTDEPEKAVEDINEHITDAQLEAMTELHDRTAVIKENEREKRPKLENLPDTEDQETVDINSVSEGKENNIMITLETNIEHNLKSEEEKDQEKQQMFENKLIKSEEIKDTILQTVDLVSQETGEKEANIQAVDSEVGLTKEDTQEKLGEDDKTQKDVISNTSDVIGTCEAADVAQKVDEDSAEDTQSNDGKEVVEVGQKLINKPMVGPEAGGTKEVPIKEIVEMNEIEEGKNKEQAINSSENIMDINEEPGTTEGEEITESSSTEEMEVRSVVADTDQKALGSEVQDASKVTTQIDKEKKEIPVSIKKEPEVTVVSQPTEPQPVLIPSININSDSGENKEEIGSLSKTETILPPESENPKENDNDSGTGSTADTSSIDLNLSISSFLSKTKDSGSISLQETRRQKKTLKKTRKFIVDGVEVSVTTSKIVTDSDSKTEELRFLRRQELRELRFLQKEEQRAQQQLNSKLQQQREQIFRRFEQEMMSKKRQYDQEIENLEKQQKQTIERLEQEHTNRLRDEAKRIKGEQEKELSKFQNMLKNRKKEVINEVEKAPKELRKELMKRRKEELAQSQHAQEQEFVQKQQQELDGSLKKIIQQQKAELANIERECLNNKQQLMRAREAAIWELEERHLQEKHQLLKQQLKDQYFMQRHQLLKRHEKETEQMQRYNQRLIEELKNRQTQERARLPKIQRSEAKTRMAMFKKSLRINSTATPDQDRDKIKQFAAQEEKRQKNERMAQHQKHENQMRDLQLQCEANVRELHQLQNEKCHLLVEHETQKLKELDEEHSQELKEWREKLRPRKKTLEEEFARKLQEQEVFFKMTGESECLNPSTQSRISKFYPIPSLHSTGS
B9: SRPK2 (protein)
chain: MSSRKVLAIQARKRRPKREKHPKKPEPQQKAPLVPPPPPPPPPPPPPLPDPTPPEPEEEILGSDDEEQEDPADYCKGGYHPVKIGDLFNGRYHVIRKLGWGHFSTVWLCWDMQGKRFVAMKVVKSAQHYTETALDEIKLLKCVRESDPSDPNKDMVVQLIDDFKISGMNGIHVCMVFEVLGHHLLKWIIKSNYQGLPVRCVKSIIRQVLQGLDYLHSKCKIIHTDIKPENILMCVDDAYVRRMAAEATEWQKAGAPPPSGSAVSTAPQQKPIGKISKNKKKKLKKKQKRQAELLEKRLQEIEELEREAERKIIEENITSAAPSNDQDGEYCPEVKLKTTGLEEAAEAETAKDNGEAEDQEEKEDAEKENIEKDEDDVDQELANIDPTWIESPKTNGHIENGPFSLEQQLDDEDDDEEDCPNPEEYNLDEPNAESDYTYSSSYEQFNGELPNGRHKIPESQFPEFSTSLFSGSLEPVACGSVLSEGSPLTEQEESSPSHDRSRTVSASSTGDLPKAKTRAADLLVNPLDPRNADKIRVKIADLGNACWVHKHFTEDIQTRQYRSIEVLIGAGYSTPADIWSTACMAFELATGDYLFEPHSGEDYSRDEDHIAHIIELLGSIPRHFALSGKYSREFFNRRGELRHITKLKPWSLFDVLVEKYGWPHEDAAQFTDFLIPMLEMVPEKRASAGECLRHPWLNS

The target in the series is T1, Bovine, dephosphorylated, Myelin Basic Protein (MBP), P02687.
T1 chain: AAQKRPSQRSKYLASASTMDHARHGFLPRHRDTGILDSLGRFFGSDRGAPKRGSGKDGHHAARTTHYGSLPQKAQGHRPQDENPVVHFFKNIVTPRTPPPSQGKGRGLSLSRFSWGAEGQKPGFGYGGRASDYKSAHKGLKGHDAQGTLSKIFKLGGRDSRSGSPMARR
Regarding B1, the “MBP Kinase Activity” value was “Weak”.

Regarding B2, the “MBP Kinase Activity” value is on record as “Strong”.

With B3, the “MBP Kinase Activity” value is recorded as “Strong”.

For B4, the “MBP Kinase Activity” value is given as “Negative”.

Regarding B5, the “MBP Kinase Activity” value is reported as “Weak”.

With B6, the “MBP Kinase Activity” value was “Negative”.

Take B7: the “MBP Kinase Activity” value is reported as “Negative”.

B8: the “MBP Kinase Activity” value was “Weak”.

Take B9: the “MBP Kinase Activity” value was “Strong”.
